Patent publication US12551573B2, “Compositions and methods for the targeting of PCSK9” (Scribe Therapeutics Inc., priority 2022, dated 2026)

B1: DOMAIN_6445 (protein, listed as Alligator sinensis)
chain: MELREAFEDVAVYFTRKEWELLEDEDKELYRDLMLRNYQALVSLGYQGPTPGLICRIKQREVELWVCDDEHHGESSVSENL
B2: DOMAIN_6737 (protein)
chain: QMLVTFEDIAVSFSKEEWEYLDEGQKELYREVMKENYQTLISLGTGFPTVIPEIISHIEQGDEPGSEERENGKSSCSGESG
modifications: Microcaecilia unicolor
B3: DOMAIN_5440 (protein, listed as Aotus trivirgatus)
chain: MAVDLLPAQESMTFRDVAVFFSQDEWLHLDSAQRALYREVMLENYSTLVSLGIPFSMPKVIHQLQQGQDPCMVEGEVPSDI
B4: DOMAIN_7109 (protein)
chain: MRVTFEDIAVSFSQEEWEYLDEEQKELYREVMKENYQTLISLGAGSLTFTPEIISHIERGEEPYSRDEPGSGEREPGKSRC
modifications: Microcaecilia unicolor
B5: DOMAIN_7183 (protein)
chain: VQVPVTFEDVAVYFSEDEWGMLAGWQKELYKETMKENYETLTLLGCLSEKPSLISKIEREEDPCVRDQQDPRDRRKLRSSW
modifications: Microcaecilia unicolor
B6: DOMAIN_6356 (protein, listed as Terrapene carolina)
chain: MSVTFEDVAMYFSPAEWVLLGEEQKQLYRHVMWENYQTLVSLGIQISKPVVISSIERGEELWAQSPTEDEDEDILSGTSPG
B7: DOMAIN_3328 (protein, listed as Hylobates sp.)
chain: MGLVSFKDVAVDFTQEEWQQLDPSQRTLYRDVMLENYSHLVSMGYPVSKPDVISKLEQGEEPWIIKGDISNWIYPDEYQAD
B8: DOMAIN_2499 (protein, listed as Pongo sp.)
chain: MNSEVIVDPIQGQVNFEDVFVYFSQEEWVLLDEAQRLLYRDVMLENFALMASLGHTSFMSHIGASLVMGSEPWVPDWVDMI
B9: DOMAIN_3832 (protein, listed as Macaca mulatta)
chain: TMSCSRAGGITGCIKYSTASVAFRDVAVDFTQEEWRLLSPAQRTLHREVMLETYNHLVSLEIPSSKPKLIAQLERGEEPWR
B10: DOMAIN_737 (protein, listed as Pan paniscus)
chain: MAFEDVAVYFSQEEWGLLDTAQRALYRRVMLDNFALVASLGLSTSRPRVVIQLERGEEPWVPSGTDTTLSRTTYRRRNPGS
B11: DOMAIN_5006 (protein, listed as Callithrix sp.)
chain: MAFEDVAVYFSQEEWGLLDTAQRALYRRVMLDNFALVASLGLSTSRPRVVIQLERGEEPWVPSETDMTMSRNTHRRRNPGS
B12: DOMAIN_4121 (protein, listed as Macaca mulatta)
chain: MAFEDVAVYFSQEEWGLLDTAQRALYRRVMLDNFALVASLGLSTSRPRVVIQLERGEEPWVPSGTDTILSRNTYRRRNPGS
B13: DOMAIN_4774 (protein, listed as Callithrix sp.)
chain: HGSSYEGSVSFRDVAINFSREEWRHLDLSQRNLYWDVMLETYSHLLSVGYQFPKPEVVMLEQGNEPWALQGERPRHSCPGE
B14: DOMAIN_5125 (protein, listed as Callithrix sp.)
chain: MPANEDTPQPGGHGSACEVSVSFEDVTVDFSREEWQQLDSTQRRLYQDVMLENYSHLLSVGFEVPKPEVIFKLEQGEGPWT
B15: DOMAIN_6472 (protein, listed as Alligator sinensis)
chain: VVLLEAFEDVAVYFTQKEWALLDDGDKALYRDQMLRNYQALISLGYRGPTPALINRIQRGEMELWVCDKDYGEKSSLEGLF
B16: DOMAIN_7184 (protein)
chain: TQMQVKFDDIAVSFSQEEWKYLDEEQKELYREVMKENYQILISLGTGSSTTPKIISHIERGEEPYIRDEPVLVERKTGKSS
modifications: Microcaecilia unicolor
B17: DOMAIN_4516 (protein, listed as Callithrix sp.)
chain: MAAIPLKAQCQETVTFEDVAVHFTKTEWTGLSPAQRALYRSVMLENYGNLTAMGYLVPKPALISLLEGGDMAWGLEAQDDP
B18: DOMAIN_7098 (protein)
chain: QVPVIFEDVAVYFWEEEWEMLEEWQKELYKETMKENYKTLVSLGMELPTEKPDLIVRIEREENPCVKAQWDSRDKTRWRNS
modifications: Microcaecilia unicolor
B19: DOMAIN_7353 (protein)
chain: AQMQVTFEDIAVFFCHEEWKYLDDGQKELYKEVMKENYETLISLGFLCEKPSLISKIEREEDPCVRDQQDFRERRRRLKSF
modifications: Microcaecilia unicolor
B20: DOMAIN_2629 (protein, listed as Pongo sp.)
chain: MFPPARGKELLSFEDVAMYFTREEWGHLSWGQKDLYRDVMLENYRNMVLLGFQFPKPEVICQLENWDEQWILDLPRAGNRK
B21: DOMAIN_6738 (protein)
chain: FQTLLAFEDVAVFFSEEEWELLDELQKEVYKNTMRENYETLLSLGLTNMKPEIIAKIDAGEAPSVQNASYLEKRGKKSAAG
modifications: Microcaecilia unicolor
B22: DOMAIN_5188 (protein, listed as Aotus trivirgatus)
chain: MITAQGPVSFRDVTVGFTQEEWQHLDPAQRTLYRDVMIENYSHLVSVGYCIPKPEVILKLEKGEEPWISEEKFPSQSHLEL
B23: DOMAIN_6938 (protein, listed as Alligator mississippiensis)
chain: SKLPEAFEDVAVYFTRKEWELLEAGDKGLYQDQMLRNYQALVSLGLQGPAPDLICRMQLGEMELWVCDDEEAGESSLSEDF
B24: DOMAIN_6398 (protein, listed as Gopherus agassizii)
chain: MPVTFEEVAVYFTEGQGALLDPAQRALYRDVMQEIYEMVISLGFLLPKPDVIIQLERGEEPWVPDLQGSAEREMSRGTCAG
B25: DOMAIN_5946 (protein, listed as Homo sapiens)
chain: RQAFLAFGDVTVDFTQKEWRLLSPAQRALYREVTLENYSHLVSLGILHSKPELIRRLEQGEVPWGEERRRRPGPCAGIYAE
B26: DOMAIN_5791 (protein, listed as Homo sapiens)
chain: EPGAVSFADVAVYFCREEWGCLRPAQRALYRDVMRETYGHLSALGIGGNKPALISWVEEEAELWGPAAQDPEVAKCQTQTD
B27: DOMAIN_6952 (protein, listed as Alligator mississippiensis)
chain: DQLQEAFEDVALYFTQNEWELLGDGDKVLYRDQMLRNYQALVSLGYQGPAPDLISRIQRQEVELWVCEEENPGESVWTEGL
B28: DOMAIN_4120 (protein, listed as Macaca mulatta)
chain: MAFEDVAVYFSQEEWGLLDTAQRALYRHVMLENFTLVTSLGLSTSRPHVVIQLERGEEPWVPSGKDMTLARNTYRRLNAGS
B29: DOMAIN_5005 (protein, listed as Callithrix sp.)
chain: MAFEDVAVYFSEEEWGLLDTAQRALYRHVMLENFTLVTSLGLSTSRPLVVIQLERGEDPWVPSVKDMTLARNAYGRRTTGS
B30: DOMAIN_2563 (protein, listed as Pongo sp.)
chain: MGPQGARRQAFLAFGDVTVDFTQKEWRLLSPTQRALYREVTLENYSHLVSLGILHSKPELIRRLEQGEAPWGEERRRRPGP
B31: DOMAIN_3463 (protein, listed as Hylobates sp.)
chain: MMTAVSLTTRPQESVAFEDVAVYFTAKEWDIMVPAERALYRDVMLENYEAVAFVVPPTSKPALVSHLEQGKESCFTRPQGV
B32: DOMAIN_6410 (protein, listed as Podarcis muralis)
chain: GLVSFDEVSVHFTNEEWALLDPGQRALYEEVMEEIREMMTSVGDVSEFLTEGEQSEPSREGAEEQKEQRKQRVQVGTYRKE
B33: DOMAIN_6433 (protein, listed as Podarcis muralis)
chain: GSVSFDEVSVRFSNEEWALLDPGQRALYEEVMEEIREMMTSVGDVSEFLTEGEQSELSREGAEEQKEQRKQRVQVGTYRNE
B34: DOMAIN_6697 (protein, listed as Podarcis muralis)
chain: GSVSFDEVSVRFSNEEWALLDPGQRALYEEVMEEIREMMTSVGDVSEFLTEGEQSEPSREGAEEQKEQRKQRVQVGTYRKE
B35: DOMAIN_2754 (protein, listed as Hylobates sp.)
chain: MAGEAEAQLDPSLQGLVMFEDVTVYFSREEWGLLNVTQKGLYRDVMLENFALVSSLGLAPSRSPVFTQLEDDEQSWVPNWV
B36: DOMAIN_7605 (protein, listed as Alligator sinensis)
chain: SKLSEAFEDVAVYFTWKEWALLEAADKMLYRDQMLKNYQALFSLGYRGPTPDLICRIQRGEMELWVSDLEEAGESSLSEDS
B37: DOMAIN_7607 (protein, listed as Alligator sinensis)
chain: MEPRDAFEDVAVYFTREEWALLDDGDKGLYRDQMLRNYQALVSLGYRGPTPDLICCIQRGKVELWVRDGEDHGEISGSEDL

tested on: HBEGF locus; assay type: cell-based, human; details: high-throughput screen of dXR repression of the HBEGF gene; change in abundance of each domain in the library before and after diphtheria toxin selection

Point of comparison: B14, “Log2 (fold change)” value 2.911. Against it:
- B1 — higher, 3.1151
- B2 — lower, 2.4861
- B3 — within 0.2 log units, 2.7871
- B4 — within 0.2 log units, 2.9932
- B5 — lower, 2.4918
- B6 — within 0.2 log units, 2.9197
- B7 — lower, 2.3718
- B8 — higher, 3.114
- B9 — within 0.2 log units, 2.7334
- B10 — higher, 4.544
- B11 — higher, 3.8614
- B12 — higher, 3.3195
- B13 — within 0.2 log units, 2.8894
- B15 — within 0.2 log units, 2.9259
- B16 — lower, 2.2019
- B17 — within 0.2 log units, 2.7603
- B18 — lower, 2.7074
- B19 — lower, 2.6649
- B20 — within 0.2 log units, 3.092
- B21 — within 0.2 log units, 2.9275
- B22 — lower, 2.1842
- B23 — lower, 2.6093
- B24 — within 0.2 log units, 2.8238
- B25 — higher, 3.2998
- B26 — lower, 2.6823
- B27 — lower, 2.3403
- B28 — higher, 3.3237
- B29 — within 0.2 log units, 2.8406
- B30 — within 0.2 log units, 2.8105
- B31 — higher, 3.5462
- B32 — within 0.2 log units, 2.7633
- B33 — within 0.2 log units, 3.0313
- B34 — lower, 2.6712
- B35 — higher, 3.7601

same assay, conditions: repressor domain in dXR, repression of the HBEGF gene; abundance of domain in library after vs before diphtheria toxin selection

Point of comparison: B37, “Log2 (fold change)” value 2.7102. Against it:
- B36 — within 0.2 log units, 2.8444
